The values below come from paper PMC8444619.

What all share (assay): cross-linking
Test [1] has as its target HA-tagged GST V125-TAG (azF) (E. coli) (UniProt P0A9D2).
In test [2] the target is NS4B^HA (HA-tagged HCV NS4B, wild type, in NS3-5B-4B^HA) (hepatitis C virus).
Test [3] deals with NS4B^HA A180-TAG (azF) (hepatitis C virus).
The target in test [4] is NS4B^HA I96-TAG (azF) (hepatitis C virus).
In test [5] the target is NS4B^HA K162-TAG (azF) (hepatitis C virus).
Test [6] concerns the target NS4B^HA M80-TAG (azF) (hepatitis C virus).
Test [7] addresses NS5A^HA I15-TAG (azF) F36A/I37A/S38A/R112A/E148A (hepatitis C virus).
The target of test [8] is NS5A^HA W84-TAG (azF) (hepatitis C virus).
For test [9], the target named is NS5A^HA W84-TAG (azF) D18A (hepatitis C virus).

For “HA-tagged GST V125-TAG (azF) (from UniProt P0A9D2 1-201) (enzyme)”, in test [1], the stoichiometry N (in general, the number of molecules, sites or subunits per partner or assembly) came out at 2. In [2], “NS4B^HA (HA-tagged HCV NS4B, wild type, in NS3-5B-4B^HA) (natural protein)” had a stoichiometry N of 2.

Turning to “NS4B^HA A180-TAG (azF) (natural protein)”, in test [3], the stoichiometry N came out at 2. Consider NS4B^HA I96-TAG (azF) (natural protein), for which the stoichiometry N in test [4] worked out at 2. Substance “NS4B^HA K162-TAG (azF) (natural protein)” registered a stoichiometry N in test [5] of 2. The substance NS4B^HA M80-TAG (azF) (natural protein) came in with a stoichiometry N in test [6] of 2. “NS5A^HA I15-TAG (azF) F36A/I37A/S38A/R112A/E148A (natural protein)” gave a percent of the control level (% of the control level) in test [7] of 55. Take NS5A^HA W84-TAG (azF) (natural protein): the stoichiometry N in test [8] is 2. With “NS5A^HA W84-TAG (azF) D18A (natural protein)”, the percent of the control level (% of the control level) in [9] was determined as 66.
